Data published in US20240270846A1 (published 2024).

B1: CE115HA000 H chain altered form N53Y (antibody, human IgG1, kappa, L234A L235A, N297A, name in Kabat numbering)
heavy: QVQLVESGGGVVQPGRSLRLSCAASGFTFSNAWMHWVRQAPGKGLEWVAQIKAKSYNYATYYAESVKGRFTISRDDSKNSLYLQMNSLKTEDTAVYYCRYVHYGAYYGVDAWGQGTTVTVSSASTKGPSVFPLAPSSKSTSGGTAALGCLVKDYFPEPVTVSWNSGALTSGVHTFPAVLQSSGLYSLSSVVTVPSSSLGTQTYICNVNHKPSNTKVDKKVEPKSCDKTHTCPPCPAPEAAGGPSVFLFPPKPKDTLMISRTPEVTCVVVDVSHEDPEVKFNWYVDGVEVHNAKTKPREEQYASTYRVVSVLTVLHQDWLNGKEYKCKVSNKALPAPIEKTISKAKGQPREPQVYTLPPSRCELTKNQVSLSCAVKGFYPSDIAVEWESNGQPENNYKTTPPVLDSDGSFFLVSKLTVDKSRWQQGNVFSCSVMHEALHNHYTQKSLSLSPDYKDDDDK
chain: EPKSSDKTHTCPPCPAPELLGGPSVFLFPPKPKDTLMISRTPEVTCVVVDVSHEDPEVKFNWYVDGVEVHNAKTKPREEQYNSTYRVVSVLTVLHQDWLNGKEYKCKVSNKALPAPIEKTISKAKGQPREPQVCTLPPSRDELTKNQVSLWCLVKGFYPSDIAVEWESNGQPENNYKTTPPVLDSDGSFFLYSKLTVDKSRWQQGNVFSCSVMHEALHNRYTQKSLSLSP
light: DIVMTQSPLSLPVTPGEPASISCRSSQSLVHSNRNTYLHWYQQKPGQAPRLLIYKVSNRFSGVPDRFSGSGSGTDFTLKISRVEAEDVGVYYCGQGTQVPYTFGQGTKLEIKRTVAAPSVFIFPPSDEQLKSGTASVVCLLNNFYPREAKVQWKVDNALQSGNSQESVTEQDSKDSTYSLSSTLTLSKADYEKHKVYACEVTHQGLSSPVTKSFNRGEC
notes: one-arm antibody
B2: CE115HA000 H chain altered form N54A (antibody, human IgG1, kappa, L234A L235A, N297A, name in Kabat numbering)
heavy: QVQLVESGGGVVQPGRSLRLSCAASGFTFSNAWMHWVRQAPGKGLEWVAQIKAKSNAYATYYAESVKGRFTISRDDSKNSLYLQMNSLKTEDTAVYYCRYVHYGAYYGVDAWGQGTTVTVSSASTKGPSVFPLAPSSKSTSGGTAALGCLVKDYFPEPVTVSWNSGALTSGVHTFPAVLQSSGLYSLSSVVTVPSSSLGTQTYICNVNHKPSNTKVDKKVEPKSCDKTHTCPPCPAPEAAGGPSVFLFPPKPKDTLMISRTPEVTCVVVDVSHEDPEVKFNWYVDGVEVHNAKTKPREEQYASTYRVVSVLTVLHQDWLNGKEYKCKVSNKALPAPIEKTISKAKGQPREPQVYTLPPSRCELTKNQVSLSCAVKGFYPSDIAVEWESNGQPENNYKTTPPVLDSDGSFFLVSKLTVDKSRWQQGNVFSCSVMHEALHNHYTQKSLSLSPDYKDDDDK
chain: EPKSSDKTHTCPPCPAPELLGGPSVFLFPPKPKDTLMISRTPEVTCVVVDVSHEDPEVKFNWYVDGVEVHNAKTKPREEQYNSTYRVVSVLTVLHQDWLNGKEYKCKVSNKALPAPIEKTISKAKGQPREPQVCTLPPSRDELTKNQVSLWCLVKGFYPSDIAVEWESNGQPENNYKTTPPVLDSDGSFFLYSKLTVDKSRWQQGNVFSCSVMHEALHNRYTQKSLSLSP
light: DIVMTQSPLSLPVTPGEPASISCRSSQSLVHSNRNTYLHWYQQKPGQAPRLLIYKVSNRFSGVPDRFSGSGSGTDFTLKISRVEAEDVGVYYCGQGTQVPYTFGQGTKLEIKRTVAAPSVFIFPPSDEQLKSGTASVVCLLNNFYPREAKVQWKVDNALQSGNSQESVTEQDSKDSTYSLSSTLTLSKADYEKHKVYACEVTHQGLSSPVTKSFNRGEC
notes: one-arm antibody

Molecular target: T1, CD3 epsilon homodimer protein (UniProt P07766 23-126)
T1 construct: also called CD3 (CD3 epsilon)
T1 sequence (P07766 23-126): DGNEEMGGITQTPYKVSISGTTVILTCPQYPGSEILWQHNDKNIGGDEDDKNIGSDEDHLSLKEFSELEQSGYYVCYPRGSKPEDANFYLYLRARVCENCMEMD
Assay: SPR Biacore T200, CD3 epsilon homodimer on chip, antibody as analyte;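 also: homodimer amine-coupled to a CM4 sensor chip, run at 25 °C in HBS-EP+ buffer, with kinetic parameters derived in Biacore T200 Evaluation Software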

Row | Binder | KD ratio (KD of CE115HA000 / KD of altered form)
1 | B1 | 0.94
2 | B2 | 0.58
